For two substances, stoichiometry N results are on record in paper PMC6713497.

The target in assay [1] is AxqNOR Val495Ala-BRIL (Alcaligenes xylosoxidans). In words: cryo-EM structure; single-particle cryo-EM of detergent-solubilised qNOR-BRIL (50 mM tris, 150 mM NaCl, 0.05% DTM; wild type pH 7.0 at 3 mg/ml, Val495Ala pH 7.5 at 5 mg/ml), C2 symmetry imposed.
In assay [2] the target is qNOR from Neisseria meningitidis (NmqNOR), wild type (Neisseria meningitidis). In words: cryo-EM structure; cryo-EM dataset of wild-type NmqNOR, 9 Å reconstruction (fig. S1); conditions not given.

Take AxqNOR Val495Ala-BRIL (enzyme): the stoichiometry N (as a rule, the number of molecules, sites or subunits per partner or assembly) in assay [1] worked out at 2. The substance “qNOR from Neisseria meningitidis (NmqNOR), wild type (enzyme)” showed a stoichiometry N in assay [2] of 2.
